Source: paper PMC11127010 (Proceedings of the National Academy of Sciences of the …, 2024)

B1: hSTIM1-WT EF-SAM domain (aa58 to 201) (domain or fragment)
chain: SEDEKLSFEAVRNIHKLMDDDANGDVDVEESDEFLREDLNYHDPTVKHSTFHGEDKLISVEDLWKAWKSSEVYNWTVDEVVQWLITYVELPQYEETFRKLQLSGHAMPRLAVTNTTMTGTVLKMTDRSHRQKLQLKALDTVLFG
B2: hSTIM1 EF-SAM domain (aa58 to 201) α9-mutant (V178A-L179A) (domain or fragment)
chain: SEDEKLSFEAVRNIHKLMDDDANGDVDVEESDEFLREDLNYHDPTVKHSTFHGEDKLISVEDLWKAWKSSEVYNWTVDEVVQWLITYVELPQYEETFRKLQLSGHAMPRLAVTNTTMTGTAAKMTDRSHRQKLQLKALDTVLFG

Molecular target: the molecule itself
Assay: SEC-MALS

Row | Protein | stoichiometry N
1 | B1 | ≥ 2
2 | B2 | ≥ 2
